Experimental data as given in US20190218277A1 (Chugai, published 2019).

Key:
[1] = target: T1, Recombinant soluble E protein (0.8E-His) from DENV-3 (DENV-3, UniProt P27915 281-673); test: SPR, Biacore T200
T1 construct: also called DENV-3 E protein; DV3

[2] = target: T2, Recombinant soluble E protein (0.8E-His) from DENV-1 (DENV-1, UniProt P27909 281-675)
T2 construct: also called DENV-1 E protein; DV1

[3] = target: T3, Recombinant soluble E protein (0.8E-His) from DENV-2 (DENV-2, UniProt P14340 281-675)
T3 construct: also called DENV-2 E protein; DV2

[4] = target: T4, Recombinant soluble E protein (0.8E-His) from DENV-4 (DENV-4, UniProt P09866 280-674)
T4 construct: also called DENV-4 E protein; DV4

B1: DG_3CH955-SG182/3CL499-SK1 (antibody, human IgG1, kappa, V domains shown)
VH: QVQLVQSGPDVEKPGASVKVSCKASGYTFTSNYIHWVRQAPGQGLEWMGVINPRGGSRRSAQKFQGRITMTRDTSTSTVYMELSSLRSEDTAVYYCARGGRALFYDSYTTPRDLGSWWFDPWGQGSLVTVSS
VL: DIQLTQSPSSLSASVGDRVTFTCQASQDIRKYLNWYQQKPGKAPKLLIYDASNLKFGVPSRFSGSGSGTDFTFTISSLQPEDVATYYCQQFDALPITFGQGTRLQIKR
In the case of B1, the binding result [1] is reported as “binds”, the Kd [2] is reported as 1.26 nM and the Kd [3] is reported as 1.03 nM. It also gave a Kd [4] of 8.26 nM.

B2: DG_3CH955-SG182/3CL563-SK1 (antibody, human IgG1, kappa, V domains shown)
VH: QVQLVQSGPDVEKPGASVKVSCKASGYTFTSNYIHWVRQAPGQGLEWMGVINPRGGSRRSAQKFQGRITMTRDTSTSTVYMELSSLRSEDTAVYYCARGGRALFYDSYTTPRDLGSWWFDPWGQGSLVTVSS
VL: DIQLTQSPSSLSASVGDRVTFTCQASQDIRQYLNWYQQKPGKAPKLLIYDASNLKFGVPSRFSGSGSGTDFTFTISSLQPEDVATYYCQQFSALPITFGQGTRLQIKR
With B2 the binding result [1] was “binds”, the Kd [2] was 1.91 nM and the Kd [3] was 1.04 nM. It also gave a Kd [4] of 12.2 nM.
